Ends that are not written are not given here.

Holding throughout (type): cell-based
The target in assay [1] is T1, α2M*/csGRP78 interaction (Mus musculus, UniProt Q6GQT1).
T1 construct: endogenous in cells; host or cells: primary mouse mesangial cells (C57BL/6)
T1 sequence (Q6GQT1 33-1474): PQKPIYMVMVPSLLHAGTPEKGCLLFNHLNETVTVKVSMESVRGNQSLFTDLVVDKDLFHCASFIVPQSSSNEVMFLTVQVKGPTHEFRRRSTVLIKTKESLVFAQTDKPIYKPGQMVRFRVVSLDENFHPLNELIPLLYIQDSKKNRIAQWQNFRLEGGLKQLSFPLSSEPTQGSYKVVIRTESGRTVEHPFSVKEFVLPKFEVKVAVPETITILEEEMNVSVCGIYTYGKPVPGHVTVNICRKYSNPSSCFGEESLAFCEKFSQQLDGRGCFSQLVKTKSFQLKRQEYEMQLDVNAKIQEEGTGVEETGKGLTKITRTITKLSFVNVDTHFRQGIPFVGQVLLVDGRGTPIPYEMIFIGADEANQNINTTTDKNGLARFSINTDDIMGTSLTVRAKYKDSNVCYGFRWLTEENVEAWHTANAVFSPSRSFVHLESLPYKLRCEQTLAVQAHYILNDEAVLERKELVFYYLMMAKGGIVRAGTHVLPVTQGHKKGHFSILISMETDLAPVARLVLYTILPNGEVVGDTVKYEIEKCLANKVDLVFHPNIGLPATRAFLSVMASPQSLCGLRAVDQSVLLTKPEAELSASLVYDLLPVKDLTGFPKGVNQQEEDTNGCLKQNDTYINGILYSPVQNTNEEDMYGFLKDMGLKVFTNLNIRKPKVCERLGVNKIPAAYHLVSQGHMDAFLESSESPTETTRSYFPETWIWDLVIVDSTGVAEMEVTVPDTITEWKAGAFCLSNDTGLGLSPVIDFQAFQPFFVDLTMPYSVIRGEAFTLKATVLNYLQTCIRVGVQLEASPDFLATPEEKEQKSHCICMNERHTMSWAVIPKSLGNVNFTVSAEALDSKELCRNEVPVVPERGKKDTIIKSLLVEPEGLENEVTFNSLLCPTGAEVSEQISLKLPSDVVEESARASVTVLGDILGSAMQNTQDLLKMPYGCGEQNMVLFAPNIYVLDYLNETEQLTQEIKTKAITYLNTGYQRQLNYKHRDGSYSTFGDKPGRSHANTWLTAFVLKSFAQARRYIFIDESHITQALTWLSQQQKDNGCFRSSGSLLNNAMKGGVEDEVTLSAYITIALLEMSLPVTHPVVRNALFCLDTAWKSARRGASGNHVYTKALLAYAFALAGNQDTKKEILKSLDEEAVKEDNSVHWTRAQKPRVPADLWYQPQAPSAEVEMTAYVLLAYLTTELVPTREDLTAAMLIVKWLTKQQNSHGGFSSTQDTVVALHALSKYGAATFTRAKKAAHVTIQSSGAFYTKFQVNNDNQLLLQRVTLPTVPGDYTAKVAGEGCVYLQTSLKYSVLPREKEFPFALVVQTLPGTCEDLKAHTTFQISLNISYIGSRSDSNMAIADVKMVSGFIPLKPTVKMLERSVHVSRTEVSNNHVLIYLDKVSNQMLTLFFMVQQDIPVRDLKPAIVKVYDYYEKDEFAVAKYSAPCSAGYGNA
The assay is described as follows: High glucose (HG)-induced profibrotic responses in primary mesangial cells (MC), immunoblotting. The settings on record: for HG-induced profibrotic responses in MC: FIG. 11B, 11D; for HG-induced Akt activation (pAkt on S473) / HG-induced upregulation of fibronectin (FN), collagen (Col) IV and CTGF: MC, HG 48 h, peptides 100 nM; for HG-induced Akt activation (pAkt on S473): FIG. 4B; for HG-induced upregulation of fibronectin (FN), collagen (Col) IV and CTGF: FIG. 4C. The method, then: (§1) Cell Culture-Primary mesangial cells (MC) were obtained from male C57BL/6 mice by glomerular sieving and cultured in Dulbecco's modified Eagle's medium (Sigma) supplemented with 20% fetal bovine serum, streptomycin (100 μg/mL) and penicillin (100 μg/mL). 1LN prostate cancer cells, which express high levels of csGRP78 (as described in Hart et al., J Biol Chem. 2002; 277 (44): 42082-42087) were cultured in RPMI 1640 supplemented with 10% fetal bovine serum (ThermoFisher). Cells were grown at 37° C. in 95% 02 and 5% CO2. The immortalized human proximal tubular cell line HK2 (ATCC, Burlington, Canada) was cultured in 10% FBS in DMEM/F12 medium. Primary rat renal fibroblasts (Cell Biologics, Burlington, Canada) and cultured in 10% FBS in DMEM/F12 medium. MC were serum deprived in medium with 1% bovine serum albumin (BSA) and HK2 and RF cells were starved in 0.5% FBS 24 h before treatment with HG (30 mM), mannitol (24.4 mM) as osmotic control or methylamine-activated α2M (100 pM). The peptide sequence in GRP78 to which α2M* binds was used to block their interaction (CLIGRTWNDPSVQQDIKFL) (Leu^98-Leu^115 with an additional N-terminal cysteine) (Gopal et al., J Biol Chem. 2016; 291 (20): 10904-10915). The scrambled peptide, GTNKSQDLWIPQLRDVFI (SEQ ID NO: 4) was used as a control, with both peptides used at 100 nM (Cedarlane). Additional peptides were synthesized by Biomatik as follows: 1) peptide lacking the N-terminal cysteine, 2) peptide in which the cysteine was replaced by a methionine, 3) dimerized peptide via the cysteine (LFKIDQQVSPDNWTRGILC—S—S— CLIGRTWNDPSVQQDIKFL) (SEQ ID NO: 5) head to tail cyclization via an amide which leaves the cysteine intact.
Protein Extraction and Immunoblotting-Cells were lysed as described previously (Krepinsky et al. Nitric Oxide Inhibits Stretch-Induced MAPK Activation in Mesangial Cells Through RhoA Inactivation. Published online 2003. doi: 10.1097/01.ASN.00000940.85.04161.A7). Proteins were separated using SDS-PAGE followed by immunoblotting. Antibodies used were: α2M (1:1000, Bioss), mouse monoclonal F-α2M, which detects only conformationally changed α2M* as previously described (1:1000), pAkt S473 (1:1000, Cell Signaling), total Akt (1:1000, Cell Signaling),), pSmad3 Ser423/425 (1:4000, Novus), total Smad3 (1:1000, Abcam), phosphorylated focal adhesion kinase (pFAK) Tyr-397 (1:1000, Millipore, 07-012), FAK (1:1000, Santa Cruz Biotechnology, SC558), LRP1 (1:1000, Abcam), GRP78 (C20) (1:1000, Santa Cruz), platelet derived growth factor-β (PDGFR-β) (1:1000, Cedarlane), collagen IV (Col IV) (1:1000, Cell Signaling), fibronectin (FN) (1:1000, Abcam), connective tissue growth factor (CTGF) (1:1000, Santa Cruz), and tubulin (1:2000, Santa Cruz).
(In general: Immunoblotting shows a protein as a band on a membrane.)

Assay [2] concerns the target T2, α2M*/csGRP78 interaction (Homo sapiens, UniProt P01023).
T2 construct: host or cells: 1LN prostate cancer cells (endogenous csGRP78); α2M* added from outside
T2 sequence (P01023 24-1474): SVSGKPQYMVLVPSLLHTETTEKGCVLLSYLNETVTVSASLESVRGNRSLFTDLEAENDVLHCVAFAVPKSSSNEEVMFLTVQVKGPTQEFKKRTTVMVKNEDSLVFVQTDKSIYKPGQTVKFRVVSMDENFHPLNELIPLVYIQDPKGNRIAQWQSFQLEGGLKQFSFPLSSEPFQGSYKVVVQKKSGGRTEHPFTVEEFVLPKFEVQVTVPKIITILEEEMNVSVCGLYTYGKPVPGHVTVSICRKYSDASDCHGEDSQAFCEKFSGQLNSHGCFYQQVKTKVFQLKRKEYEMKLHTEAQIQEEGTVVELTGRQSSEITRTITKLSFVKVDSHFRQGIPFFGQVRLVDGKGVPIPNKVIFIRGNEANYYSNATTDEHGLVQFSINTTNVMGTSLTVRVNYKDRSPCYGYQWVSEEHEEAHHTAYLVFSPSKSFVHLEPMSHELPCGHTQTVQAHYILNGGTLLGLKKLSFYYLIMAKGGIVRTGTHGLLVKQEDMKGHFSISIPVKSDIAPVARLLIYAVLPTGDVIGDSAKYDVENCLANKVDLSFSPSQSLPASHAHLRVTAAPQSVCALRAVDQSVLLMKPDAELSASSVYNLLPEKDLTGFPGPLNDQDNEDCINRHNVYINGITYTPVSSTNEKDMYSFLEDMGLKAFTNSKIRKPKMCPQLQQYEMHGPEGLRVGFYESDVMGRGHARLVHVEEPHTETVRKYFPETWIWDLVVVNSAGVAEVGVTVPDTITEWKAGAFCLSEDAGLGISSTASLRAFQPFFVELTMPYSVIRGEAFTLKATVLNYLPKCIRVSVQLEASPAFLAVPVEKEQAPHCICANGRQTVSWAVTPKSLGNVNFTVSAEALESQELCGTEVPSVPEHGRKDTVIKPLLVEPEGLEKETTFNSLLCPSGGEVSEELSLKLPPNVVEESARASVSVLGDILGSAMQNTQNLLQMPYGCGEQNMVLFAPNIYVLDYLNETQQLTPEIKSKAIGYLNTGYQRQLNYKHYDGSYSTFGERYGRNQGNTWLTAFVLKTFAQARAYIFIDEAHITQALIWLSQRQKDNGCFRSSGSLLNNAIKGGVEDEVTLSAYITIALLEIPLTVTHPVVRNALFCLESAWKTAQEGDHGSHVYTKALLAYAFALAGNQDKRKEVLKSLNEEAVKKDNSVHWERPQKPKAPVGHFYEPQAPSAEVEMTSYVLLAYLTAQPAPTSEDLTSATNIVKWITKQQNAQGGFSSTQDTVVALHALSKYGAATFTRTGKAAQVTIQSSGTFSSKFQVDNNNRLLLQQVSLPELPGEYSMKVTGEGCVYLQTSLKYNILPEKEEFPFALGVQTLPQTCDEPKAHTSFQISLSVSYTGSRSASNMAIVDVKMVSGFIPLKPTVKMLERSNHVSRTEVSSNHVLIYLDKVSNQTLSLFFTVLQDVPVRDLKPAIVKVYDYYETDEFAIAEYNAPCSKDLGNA
Put plainly: Intracellular calcium assay (Fura-2AM) in 1LN cells treated with α2M*. The method, then: as §1, with “The scrambled peptide, GTNKSQDLWIPQLRDVFI (SEQ ID NO: 4) was used as a control, with both peptides used at 100 nM (Cedarlane). Additional peptides were synthesized by Biomatik as follows: 1) peptide lacking the N-terminal cysteine, 2) peptide in which the cysteine was replaced by a methionine, 3) dimerized peptide via the cysteine (LFKIDQQVSPDNWTRGILC—S—S— CLIGRTWNDPSVQQDIKFL) (SEQ ID NO: 5) head to tail cyclization via an amide which leaves the cysteine intact.” left out
Intracellular Calcium Assay—1LN cells were plated in a 96 black walled clear bottom plate and allowed to grow to confluence over 2 days. After loading with the calcium indicator Fura-2AM (5 μM, Abcam) in HBSS for 45 minutes at 37° C. in the dark, baseline fluorescence readings were taken every minute for 5 minutes using a temperature-controlled fluorescent microplate reader (Gemini EM Spectra Max, Molecular Devices) set to 340 and 380 nm excitation and 510 nm emission. After treatment with methylamine-activated α2M (100 pM) with or without antibody (Fα2M or control IgG, 2 μg) and with or without peptide or scrambled peptide (100 nM), readings were taken every minute for 15 minutes. Intracellular calcium concentrations were determined by calculating the ratio of fluorescence signal (340/380 nm).
On the technique in general: Calcium assays in cells follow changes in intracellular calcium, usually with a dye or a luminescent sensor.

Assay [3] deals with csGRP78 interaction with α2M*. Put plainly: HG-induced profibrotic signaling and matrix production in human proximal tubular cell line HK2. The settings on record: proximal tubular cells; FIG. 8E. The protocol:
as §1, with “Additional peptides were synthesized by Biomatik as follows: 1) peptide lacking the N-terminal cysteine, 2) peptide in which the cysteine was replaced by a methionine, 3) dimerized peptide via the cysteine (LFKIDQQVSPDNWTRGILC—S—S— CLIGRTWNDPSVQQDIKFL) (SEQ ID NO: 5) head to tail cyclization via an amide which leaves the cysteine intact.” left out

Assay [4] has as its system csGRP78 interaction with α2M*. Put plainly: HG-induced profibrotic signaling and matrix production in primary rat renal fibroblasts. The settings on record: FIG. 8F. The protocol: as §1, with “Additional peptides were synthesized by Biomatik as follows: 1) peptide lacking the N-terminal cysteine, 2) peptide in which the cysteine was replaced by a methionine, 3) dimerized peptide via the cysteine (LFKIDQQVSPDNWTRGILC—S—S— CLIGRTWNDPSVQQDIKFL) (SEQ ID NO: 5) head to tail cyclization via an amide which leaves the cysteine intact.” left out

Consider “LIGRTWNDPSVQQDIKFL [Pep woC, peptide without an N-terminal cysteine residue in Leu98-Leu115]”, for which the “HG-induced profibrotic responses in MC” value with α2M*/csGRP78 interaction [1] is listed as “does not prevent HG-induced profibrotic responses”. In addition, the “calcium signaling in 1LN cells induced by α2M*” value with α2M*/csGRP78 interaction [2] (peptide tested at 100 pM and 100 nM, FIG. 11A) is recorded as “did not inhibit calcium signaling”.
As to “GTNKSQDLWIPQLRDVFI [Scr, scrambled control peptide, reference compound]”, in the assay with α2M*/csGRP78 interaction [1], the “HG-induced Akt activation (pAkt on S473)” value was “had no effect”; the “HG-induced upregulation of fibronectin (FN), collagen (Col) IV and CTGF” value is “had no effect”.
As for CLIGRTWNDPSVQQDIKFL [Pep], the “HG-induced Akt activation (Ser473) and ECM production” value in assay [3] is recorded as “attenuated”. For the same substance, in the assay with α2M*/csGRP78 interaction [1], the “HG-induced Akt activation (pAkt on S473)” value is reported as “prevented HG-induced Akt activation”; the “HG-induced upregulation of fibronectin (FN), collagen (Col) IV and CTGF” value is on record as “prevented”. Further, the “release of intracellular calcium stores in response to α2M*” value with α2M*/csGRP78 interaction [2] (1-LN cells, α2M* 100 pM, 15 min, peptides 100 nM, FIG. 4A) was “inhibited release of intracellular calcium stores”. For the same substance, the “HG-induced Akt activation (Ser473) and ECM production” value in assay [4] was “attenuated”.
Regarding “LFKIDQQVSPDNWTRGILC—S—S— CLIGRTWNDPSVQQDIKFL (also: homodimer via disulfide between the N-terminal cysteines of two copies) [Dimer Pep, dimerized peptide via the cysteine]”, in the assay with α2M*/csGRP78 interaction [1], the “HG-induced profibrotic responses in MC” value is on record as “do not prevent HG-induced profibrotic responses”. For the same substance, the “calcium signaling in 1LN cells induced by α2M*” value with α2M*/csGRP78 interaction [2] (FIG. 11C) is recorded as “do not inhibit calcium signaling”.

The values above are taken from patent US20240424056A1, “Peptides for Anti Fibrotic Therapy” (McMaster University, priority 2021, published 2024).
